According to patent publication US6395275 (Scripps Research, dated 2002):
Read-outs that look alike come from different tables or passages of the source.

Experiments:
[1] = molecular target: T1, recombinant gp120 of HIV-1 strain IIIb (HIV-1 strain IIIb, UniProt P04578 33-511); experiment: SPR BIAcore, gp120 on chip
T1 construct: domain: gp120; also called IIIb-derived gp120; gp 120 (IIIB strain)

[2] = molecular target: T1, recombinant gp120 of HIV-1 strain IIIb; experiment: SPR BIAcore, gp120 on chip; remark: listed apart in the source
Description: In the assay, the gp120 glycoprotein, isolated from both MN (AgMed, Cambridge, Mass.) and IIIb (American Bio-Technologies) strains of HIV-1 were coated onto gold chips. […] As the mass of the gold chips increases due to the binding of the Fabs to the ligand, the refractive index of the chips increases indicating a coordinate increase in the increase of the mass. Measurements of the "on" rate are made in addition to the "off" rates, the latter of which occurs as the Fabs begin to dissociate from the ligand and the mass coordinately decreases, thereby allowing a measurement of the change of the refractive index. Briefly, the sensor chip was activated for immobilization with N-hydroxysuccinimide an N-ethyl-N'-(3-diethyl aminopropyl) carbodiimide. The proteins, MN-derived or IIIb-derived gp120, were coupled to the surface by injection of 50 ul of a 50 ug/ml sample. Excess activated esters were quenched with 15 ul ethanolamine, 1 M pH 8.5. Typically, 4000 resonance units were immobilized. Binding of Fab fragments to immobilized gp120 was studied by injection of Fab in a range of concentrations (0.5 to 10 ug/ml) at a flow rate of 5 ul/minute. The association was monitored as the increase in resonance units per unit time. Dissociation measurements were acquired following the end of the association phase but with a flow rate of 50 ul/minute. […]

[3] = molecular target: T1, recombinant gp120 of HIV-1 strain IIIb; experiment: cell-based or functional assay
[4] = molecular target: gp120 glycoprotein of HIV-1 strain MN (HIV-1 strain MN, UniProt P05877 32-513, limits assumed); experiment: cell-based or functional assay
[5] = molecular target: T1, recombinant gp120 of HIV-1 strain IIIb; experiment: calculated as ln2/Koff from SPR
Protocol: (§1) The soluble composite Fabs were then analyzed for binding affinity to gp120 strain IIIB.
In addition, the half-life of the binding of the gp120-reactive Fabs to gp120 can be obtained by dividing the natural log ($\ln_2$) with the $Koff$ rate constant, thereby obtaining a further parameter of the nature of the interaction.

[6] = molecular target: T1, recombinant gp120 of HIV-1 strain IIIb; experiment: SPR BIAcore, gp120 on chip; remark: listed apart in the source
Description: (§2) As the mass of the gold chips increases due to the binding of the Fabs to the ligand, the refractive index of the chips increases indicating a coordinate increase in the increase of the mass. Measurements of the "on" rate are made in addition to the "off" rates, the latter of which occurs as the Fabs begin to dissociate from the ligand and the mass coordinately decreases, thereby allowing a measurement of the change of the refractive index. Briefly, the sensor chip was activated for immobilization with N-hydroxysuccinimide an N-ethyl-N'-(3-diethyl aminopropyl) carbodiimide. The proteins, MN-derived or IIIb-derived gp120, were coupled to the surface by injection of 50 ul of a 50 ug/ml sample. Excess activated esters were quenched with 15 ul ethanolamine, 1 M pH 8.5. Typically, 4000 resonance units were immobilized. Binding of Fab fragments to immobilized gp120 was studied by injection of Fab in a range of concentrations (0.5 to 10 ug/ml) at a flow rate of 5 ul/minute. The association was monitored as the increase in resonance units per unit time. Dissociation measurements were acquired following the end of the association phase but with a flow rate of 50 ul/minute. The binding surface was regenerated with HCl, 1M NaCl, pH 3 and remained active for 20–40 measurements. […] Equilibrium association and dissociation constants were deduced from the rate constants.
as §1

[7] = molecular target: T1, recombinant gp120 of HIV-1 strain IIIb; experiment: SPR BIAcore, gp120 on chip (summary table)
[8] = molecular target: T1, recombinant gp120 of HIV-1 strain IIIb; experiment: SPR BIAcore, gp120 on chip; remark: listed apart in the source
[9] = molecular target: T1, recombinant gp120 of HIV-1 strain IIIb; experiment: SPR BIAcore, gp120 on chip; remark: listed apart in the source
Description: as §2

[10] = molecular target: T1, recombinant gp120 of HIV-1 strain IIIb; experiment: SPR BIAcore, gp120 on chip; remark: listed apart in the source
Protocol: Briefly, the sensor chip was activated for immobilization with N-hydroxysuccinimide an N-ethyl-N'-(3-diethyl aminopropyl) carbodiimide. The proteins, MN-derived or IIIb-derived gp120, were coupled to the surface by injection of 50 ul of a 50 ug/ml sample. Excess activated esters were quenched with 15 ul ethanolamine, 1 M pH 8.5. Typically, 4000 resonance units were immobilized. Binding of Fab fragments to immobilized gp120 was studied by injection of Fab in a range of concentrations (0.5 to 10 ug/ml) at a flow rate of 5 ul/minute. The association was monitored as the increase in resonance units per unit time. Dissociation measurements were acquired following the end of the association phase but with a flow rate of 50 ul/minute. The binding surface was regenerated with HCl, 1M NaCl, pH 3 and remained active for 20–40 measurements. […] Equilibrium association and dissociation constants were deduced from the rate constants.

[11] = molecular target: T1, recombinant gp120 of HIV-1 strain IIIb; experiment: SPR BIAcore, gp120 on chip; remark: listed apart in the source
Description: as §2
The soluble A–D series Fabs were then analyzed for binding affinity to gp120 strain IIIB.

B1: Fab 3b3 (Fab, V domains shown)
VH: LEQSGAEVKKPGASVKVSCQASGYRFSNFTVHWVRQAPGQRFEWMGWINPYNGNKEFSAKFQDRVTFTADTSANTAYMELRSLRSADTAVYYCARVGEWGWDDSPQDNYYMDVWGKGTTVIVSS
VL: ELTQSPGTLSLSPGERATFSCRSSHSIRSRRVAWYQHKPGQAPRLVIHGVSNRASGISDRFSGSGSGTDFTLTITRVEPEDFALYYCQVYGASSYTFGQGTKLERKR
Question: With B1 as the binder, how does the Ka [1] read?
Answer: 1.3e+09 M⁻¹

Question: What about the Kd [2] of the same binder?
Answer: 0.77 nM

Question: What about the “IC50 (M), syncytium neutralization assay, HIV-1 IIIb” value [3] of the same binder?
Answer: 9.4e-10 M

Question: What about the “Neutralization titer (ng/ml), syncytium assay, HIV-1 IIIb” value [3] of the same binder?
Answer: 47 ng/mL

Question: And the “IC50 (M^-1), syncytium neutralization assay, HIV-1 MN on CEM-SS cells” value (from here on “IC50 … on CEM-SS cells”) [4]?
Answer: 9.02e+09 M⁻¹

Question: And the “Neutralization Titer (ng/ml), syncytium assay, HIV-1 MN” value (“Neutralization Titer … HIV-1 MN” for short) [4]?
Answer: 5.5 ng/mL

B2: composite Fab H31/L42-1 (Fab, V domains shown)
VH: LEQSGAEVKKPGASVKVSCQASGYRFSHFTVHWVRQAPGQRFEWHGWINPYNGNKEFSAKFQDRVTFTADTSANTAYMELRSLRSADTAVYYCARVGEWGWEMFRYDNYYMDVWGKGTTVIVSS
VL: ELTQSPGTLSLSPGERATFSCRSSHQLDGSRVAWYQHKPGQAPRLVIHGVSNRASGISDRFSGSGSGTDFTLTITRVEPEDFALYYCQQYGWPFYTFGQGTKLERKR
notes: also called Fab of plasmid pPho-H31/L42-1 (ATCC 69691)
Question: Which half-life of binding [5] does the source give for B2 here?
Answer: 44.5 days

Question: What about the “Fold Increase of Mutant Kd Compared to MT4 Kd” value (“Fold Increase” below) [6] of the same binder?
Answer: 2430 fold

Question: And the Ka [6]?
Answer: 3.85e+11 M⁻¹

Question: And the Kd [6]?
Answer: 0.00259 nM

Question: And the Kd [7]?
Answer: 0.00259 nM

Question: And the koff [8]?
Answer: 1.75e-07 s⁻¹

Question: What about the kon [8] of the same binder?
Answer: 67300 M⁻¹ s⁻¹

B3: Fab H4L3-3 (Fab, V domains shown)
VH: LEQSGAEVKKPGASVKVSCQASGYRFSNFTVHWVRQAPGQRFEWMGWINPYNGNKEFSAKFQDRVTFTADTSANTAYMELRSLRSADTAVYYCARVGEWGWDDSPQDNYYMDVWGKGTTVIVSS
VL: ELTQSPGTLSLSPGERATFSCRSSHSIRSRRVAWYQHKPGQAPRLVIHGVSNRASGISDRFSGSGSGTDFTLTITRVEPEDFALYYCQVYGGSAYTFGQGTKLERK
Question: Which “Fold Increase” value [9] does the source give for B3 here?
Answer: 1.9 fold

Question: And the Kd [9]?
Answer: 3.31 nM

B4: Fab 3b4 (Fab, V domains shown)
VH: LEQSGAEVKKPGASVKVSCQASGYRFSNYTLIWVRQAPGQRFEWMGWINPYNGNKEFSAKFQDRVTFTADTSANTAYMELRSLRSADTAVYYCARVGPWNWDSPQDNYYMDVWGKGTTVIVSS
VL: ELTQSPGTLSLSPGERATFSCRSSHSIRSRRVAWYQHKPGQAPRLVIHGVSNRASGISDRFSGSGSGTDFTLTITRVEPEDFALYYCQVYGASSYTFGQGTKLERKR
Question: Which “IC50 … on CEM-SS cells” value [4] does the source give for B4 here?
Answer: 2.57e+09 M⁻¹

Question: What about the “Neutralization Titer … HIV-1 MN” value [4] of the same binder?
Answer: 19.4 ng/mL

B5: Fab MT4 (Fab, V domains shown)
VH: LEQSGAEVKKPGASVKVSCQASGYRFSNFVIHWVRQAPGQRFEWMGWINPYNGNKEFSAKFQDRVTFTADTSANTAYMELRSLRSADTAVYYCARVGPYSWDDSPQDNYYMDVWGKGTTVIVSS
VL: ELTQSPGTLSLSPGERATFSCRSSHSIRSRRVAWYQHKPGQAPRLVIHGVSNRASGISDRFSGSGSGTDFTLTITRVEPEDFALYYCQVYGASSYTFGQGTKLERKR
notes: also called Fab 4; 4H (heavy chain)
Question: Which results are given for B5?
Answer: IC50 (M^-1), syncytium neutralization assay, HIV-1 MN on CEM-SS cells [4]: 1.69e+08 M⁻¹; Neutralization Titer (ng/ml), syncytium assay, HIV-1 MN [4]: 296 ng/mL

B6: Fab H4L3-2 (Fab, V domains shown)
VH: LEQSGAEVKKPGASVKVSCQASGYRFSNFTVHWVRQAPGQRFEWMGWINPYNGNKEFSAKFQDRVTFTADTSANTAYMELRSLRSADTAVYYCARVGEWGWDDSPQDNYYMDVWGKGTTVIVSS
VL: ELTQSPGTLSLSPGERATFSCRSSHSIRSRRVAWYQHKPGQAPRLVIHGVSNRASGISDRFSGSGSGTDFTLTITRVEPEDFALYYCQQYGWPFYTFGQGTKLERKR
Question: B6 was tested. Which Kd [7] did it give?
Answer: 0.138 nM

Question: And the “Fold Increase” value [9]?
Answer: 45.3 fold

Question: And the Kd [9]?
Answer: 0.138 nM

B7: Fab 3b1 (Fab, V domains shown)
VH: LEQSGAEVKKPGASVKVSCQASGYRFSNFTLMWVRQAPGQRFEWMGWINPYNGNKEFSAKFQDRVTFTADTSANTAYMELRSLRSADTAVYYCARVGQWNWDDSPQDNYYMDVWGKGTTVIVSS
VL: ELTQSPGTLSLSPGERATFSCRSSHSIRSRRVAWYQHKPGQAPRLVIHGVSNRASGISDRFSGSGSGTDFTLTITRVEPEDFALYYCQVYGASSYTFGQGTKLERKR
Question: B7 was tested. Which “IC50 (M), syncytium neutralization assay, HIV-1 IIIb” value [3] did it give?
Answer: 4.4e-10 M

Question: And the “Neutralization titer (ng/ml), syncytium assay, HIV-1 IIIb” value [3]?
Answer: 22 ng/mL

Question: And the “IC50 … on CEM-SS cells” value [4]?
Answer: 5.42e+09 M⁻¹

Question: And the “Neutralization Titer … HIV-1 MN” value [4]?
Answer: 9.2 ng/mL

B8: Fab H4L3-4 (Fab, V domains shown)
VH: LEQSGAEVKKPGASVKVSCQASGYRFSNFTVHWVRQAPGQRFEWMGWINPYNGNKEFSAKFQDRVTFTADTSANTAYMELRSLRSADTAVYYCARVGEWGWDDSPQDNYYMDVWGKGTTVIVSS
VL: ELTQSPGTLSLSPGERATFSCRSSHSIRSRRVAWYQHKPGQAPRLVIHGVSNRASGISDRFSGSGSGTDFTLTITRVEPEDFALYYCQKYGGGTYTFGQGTKLERKR
Question: What does the source list for B8?
Answer: Kd [7]: 0.243 nM; Fold Increase of Mutant Kd Compared to MT4 Kd [9]: 25.7 fold; Kd [9]: 0.243 nM

B9: Fab 3b9 (Fab, V domains shown)
VH: LEQSGAEVKKPGASVKVSCQASGYRFSNFTVHWVRQAPGQRFEWMGWINPYNGNKEFSAKFQDRVTFTADTSANTAYMELRSLRSADTAVYYCARVGPWRWDDSPQDNYYMDVWGKGTIVIVSS
VL: ELTQSPGTLSLSPGERATFSCRSSHSIRSRRVAWYQHKPGQAPRLVIHGVSNRASGISDRFSGSGSGTDFTLTITRVEPEDFALYYCQVYGASSYTFGQGTKLERKR
Question: What does the source list for B9?
Answer: IC50 (M^-1), syncytium neutralization assay, HIV-1 MN on CEM-SS cells [4]: 6.4e+09 M⁻¹; Neutralization Titer (ng/ml), syncytium assay, HIV-1 MN [4]: 7.8 ng/mL

B10: Fab H4H1-3 (Fab, V domains shown)
VH: LEQSGAEVKKPGASVKVSCQASGYRFSHFTLHWVRQAPGQRFEWMGWINPYNGNKEFSAKFQDRVTFTADTSANTAYMELRSLRSADTAVYYCARVGPYSWDDSPQDNYYMDVWGKGTTVIVSS
VL: ELTQSPGTLSLSPGERATFSCRSSHSIRSRRVAWYQHKPGQAPRLVIHGVSNRASGISDRFSGSGSGTDFTLTITRVEPEDFALYYCQVYGASSYTFGQGTKLERKR
Question: With B10 as the binder, how does the “Fold Increase” value [10] read?
Answer: 3.15 fold

Question: And the Kd [10]?
Answer: 2 nM

B11: Fab H4H1-5 (Fab, V domains shown)
VH: LEQSGAEVKKPGASVKVSCQASGYRFSHFTIMWVRQAPGQRFEWMGWINPYNGNKEFSAKFQDRVTFTADTSANTAYMELRSLRSADTAVYYCARVGPYSWDDSPQDNYYMDVWGKGTTVIVSS
VL: ELTQSPGTLSLSPGERATFSCRSSHSIRSRRVAWYQHKPGQAPRLVIHGVSNRASGISDRFSGSGSGTDFTLTITRVEPEDFALYYCQVYGASSYTFGQGTKLERKR
Question: Which results are given for B11?
Answer: Fold Increase of Mutant Kd Compared to MT4 Kd [10]: 2.57 fold; Kd [10]: 2.45 nM

B12: Fab D (Fab, V domains shown)
VH: LEQSGAEVKKPGASVKVSCQASGYRFSNFTVHWVRQAPGQRFEWMGWINPYNGNKEFSAKFQDRVTFTADTSANTAYMELRSLRSADTAVYYCARVGEWGWDDSPQDNYYMDVWGKGTTVIVSS
VL: ELTQSPGTLSLSPGERATFSCRSSHQLDGSRVAWYQHKPGQAPRLVIHGVSNRASGISDRFSGSGSGTDFTLTITRVEPEDFALYYCQVYGASSYTFGQGTKLERKR
Question: For B12, which “Fold Increase” value [11] is on record?
Answer: 28.6 fold

Question: What about the Kd [11] of the same binder?
Answer: 0.22 nM

Question: What about the Kd [7] of the same binder?
Answer: 0.22 nM

B13: Fab B (Fab, V domains shown)
VH: LEQSGAEVKKPGASVKVSCQASGYRFSNFTVHWVRQAPGQRFEWMGWINPYNGNKEFSAKFQDRVTFTADTSANTAYMELRSLRSADTAVYYCARVGEWGWDDSPQDNYYMDVWGKGTTVIVSS
VL: ELTQSPGTLSLSPGERATFSCRSSHTVYRDRVAWYQHKPGQAPRLVIHGVSNRASGISDRFSGSGSGTDFTLTITRVEPEDFALYYCQVYGASSYTFGQGTKLERKR
Question: B13 was tested. Which “Fold Increase” value [11] did it give?
Answer: 5.7 fold

Question: What about the Kd [11] of the same binder?
Answer: 1.1 nM

B14: Fab A (Fab, V domains shown)
VH: LEQSGAEVKKPGASVKVSCQASGYRFSNFTVHWVRQAPGQRFEWMGWINPYNGNKEFSAKFQDRVTFTADTSANTAYMELRSLRSADTAVYYCARVGEWGWDDSPQDNYYMDVWGKGTTVIVSS
VL: ELTQSPGTLSLSPGERATFSCRSSHKEFGRRVAWYQHKPGQAPRLVIHGVSNRASGISDRFSGSGSGTDFTLTITRVEPEDFALYYCQVYGASSYTFGQGTKLERKR
Question: What does the source list for B14?
Answer: Fold Increase of Mutant Kd Compared to MT4 Kd [11]: 1.3 fold; Kd [11]: 4.7 nM

B15: Fab H4H1-1 (Fab, V domains shown)
VH: LEQSGAEVKKPGASVKVSCQASGYRFSHFTVHWVRQAPGQRFEWMGWINPYNGNKEFSAKFQDRVTFTADTSANTAYMELRSLRSADTAVYYCARVGPYSWDDSPQDNYYMDVWGKGTTVIVSS
VL: ELTQSPGTLSLSPGERATFSCRSSHSIRSRRVAWYQHKPGQAPRLVIHGVSNRASGISDRFSGSGSGTDFTLTITRVEPEDFALYYCQVYGASSYTFGQGTKLERKR
Question: Which “Fold Increase” value [10] does the source give for B15 here?
Answer: 3.7 fold

Question: And the Kd [10]?
Answer: 1.7 nM
